Publication PMC3103430, “RecA Proteins from Deinococcus geothermalis and Deinococcus murrayi - Cloning, Purification and Biochemical Characterisation” (BMC Molecular Biology, 2011)

Columns and labels:
[1] = tested on: Nc1ncnc2c1ncn2[C@H]1C[C@H](O)[C@@H](COP(=O)(O)OP(=O)(O)OP(=O)(O)O)O1; experiment: purified protein; assay type: biochemical, Deinococcus geothermalis; conditions: ssDNA-dependent (80-nt oligonucleotide, 12.16 μM nucleotides), 11.56 mM MgCl2, 20 mM Tris-HCl pH 7.5, 37 °C, Hill fit, n 1.2
[2] = tested on: Nc1ncnc2c1ncn2[C@@H]1O[C@H](COP(=O)(O)OP(=O)(O)OP(=O)(O)O)[C@@H](O)[C@H]1O; experiment: purified protein; assay type: biochemical, Deinococcus geothermalis; conditions: ssDNA-dependent (80-nt oligonucleotide, 12.16 μM nucleotides), 11.56 mM MgCl2, 20 mM Tris-HCl pH 7.5, 37 °C, Hill fit, n 2.9

**Q.** “DgeRecA (Deinococcus geothermalis DSM 11300)” was tested. Which Km [1] did it give?
**A.** 620 ± 23 µM

**Q.** And the kcat [1]?
**A.** 0.21 ± 0.007 s⁻¹

**Q.** And the kcat/Km [1]?
**A.** 330 ± 10 M⁻¹ s⁻¹

**Q.** And the Km [2]?
**A.** 560 ± 18 µM

**Q.** And the kcat [2]?
**A.** 0.15 ± 0.004 s⁻¹

**Q.** And the kcat/Km [2]?
**A.** 270 ± 12 M⁻¹ s⁻¹
